This is an account of results in publication doi:10.64898/2025.12.12.693941 (bioRxiv, 2025).

Data set [1] concerns the molecule itself. The data set is described as follows: SEC-MALS. (In general: SEC sorts molecules by how far they enter the pores of the column.)
The target of data set [2] is M. tuberculosis LigD, wild type, His-tag removed by TEV (MST analyte) (M. tuberculosis, UniProt P9WNV3 1-759). The data set is described as follows: MST.
Data set [3] addresses M. tuberculosis LigD V194D (M. tuberculosis, UniProt P9WNV3 1-759, V194D). Briefly: MST.
The target in data set [4] is M. tuberculosis LigD R198E (M. tuberculosis, UniProt P9WNV3 1-759, R198E). The data set is described as follows: MST.
Data set [5] deals with M. tuberculosis LigD K579E (M. tuberculosis, UniProt P9WNV3 1-759, K579E). The data set is described as follows: MST.
Data set [6] addresses M. tuberculosis LigD L580E (M. tuberculosis, UniProt P9WNV3 1-759, L580E). The data set is described as follows: MST.
The target in data set [7] is M. tuberculosis LigD D162R (M. tuberculosis, UniProt P9WNV3 1-759, D162R). The data set is described as follows: MST.

Substitutions are numbered along the chain they refer to. Names and notes keep the numbering of the source.

B1: M. tuberculosis Ku R262A (natural protein)
chain: MRAIWTGSIAFGLVNVPVKVYSATADHDIRFHQVHAKDNGRIRYKRVCEACGEVVDYRDLARAYESGDGQMVAITDDDIASLPEERSREIEVLEFVPAADVDPMMFDRSYFLEPDSKSSKSYVLLAKTLAETDRMAIVHFTLRNKTRLAALRVKDFGKREVMMVHTLLWPDEIRDPDFPVLDQKVEIKPAELKMAGQVVDSMADDFNPDRYHDTYQEQLQELIDTKLEGGQAFTAEDQPRLLDEPEDVSDLLAKLEASVKAASKANSNVPTPP
What is called stoichiometry N is the number of molecules, sites or subunits per partner or assembly. For B1, the “stoichiometry N” value in data set [1] was determined as 2. Besides, the binding result in data set [2] is reported as “binds”.

B2: M. tuberculosis Ku, wild type, His-tag removed by TEV (MST analyte) (natural protein)
chain: B1 chain with A262R
By Kd is commonly meant the free concentration of one partner at which half of the binding sites on the other are occupied at equilibrium, for simple one-to-one binding. Higher therefore signals weaker binding. As to B2, the binding result in data set [3], in data set [4] and in data set [7] was “binds” in each case. In addition, the Kd in data set [5] worked out at 510 nM; in data set [6], 1270 nM.

B3: M. tuberculosis Ku S263A (natural protein)
chain: B1 chain with A262R, S263A
For the molecule B3, the “stoichiometry N” value in data set [1] amounted to 2. Also, in data set [2], the binding result is recorded as “binds”.

B4: M. tuberculosis Ku, wild type, His-tagged and RED-tris-NTA labelled (MST ligand) (natural protein)
chain: B1 chain with A262R
On to B4, for which the Kd in data set [2] turned out to be 850 nM.

B5: M. tuberculosis Ku S258A (natural protein)
chain: B1 chain with S258A, A262R
Consider B5, for which the “stoichiometry N” value in data set [1] worked out at 2. Further, the binding result in data set [2] is on record as “binds”.

B6: M. tuberculosis Ku E256A (natural protein)
chain: B1 chain with E256A, A262R
Turning to B6, the “stoichiometry N” value in data set [1] amounted to 2. In data set [2], the binding result is reported as “binds”.

B7: M. tuberculosis Ku V248A (natural protein)
chain: B1 chain with V248A, A262R
Take B7: the “stoichiometry N” value in data set [1] amounted to 2. Further, the binding result in data set [2] is reported as “binds”.

B8: M. tuberculosis Ku E246A (natural protein)
chain: B1 chain with E246A, A262R
Turning to B8, the “stoichiometry N” value in data set [1] turned out to be 2. Also, in data set [2], the binding result was “binds”.

B9: M. tuberculosis Ku K260A (natural protein)
chain: B1 chain with K260A, A262R
For the molecule B9, the “stoichiometry N” value in data set [1] was 2. In data set [2], the binding result is “binds”.

B10: M. tuberculosis Ku N266A (natural protein)
chain: B1 chain with A262R, N266A
Take B10: the “stoichiometry N” value in data set [1] worked out at 2.
